# Paper doi:10.1101/2020.07.07.192807 (bioRxiv, 2020)
# Target: the molecule itself
# Assay: cross-linking
row,Protein,stoichiometry N
1,"Wild type MtrR of Neisseria gonorrhoeae (strain FA19), hexa-histidine tagged (natural protein) MRKTKTEALKTKEHLMLAALETFYRKGIARTSLNEIAQAAGVTRGALYWHFKNKEDLFDALFQRICDDIENCIAQDAADAEGGSWTVFRHTLLHFFERLQSNDIHYKFHNILFLKCEHTEQNAAVIAIARKHQAIWREKITAVLTEAVENQDLADDLDKETAVIFIKSTLDGLIWRWFSSGESFDLGKTAPRIIGIMMDNLENHPCLRRK",2
2,"H105Y mutant MtrR of Neisseria gonorrhoeae (from an antibiotic resistant clinical isolate), hexa-histidine tagged (natural protein) MRKTKTEALKTKEHLMLAALETFYRKGIARTSLNEIAQAAGVTRGALYWHFKNKEDLFDALFQRICDDIENCIAQDAADAEGGSWTVFRHTLLHFFERLQSNDIYYKFHNILFLKCEHTEQNAAVIAIARKHQAIWREKITAVLTEAVENQDLADDLDKETAVIFIKSTLDGLIWRWFSSGESFDLGKTAPRIIGIMMDNLENHPCLRRK",2
